This is an account of results in patent US12723078 (University of Texas, dated 2026).

The labels stand for the following.
B1: mAb of B cell clone 209 (supernatant) (antibody, V domains shown)
VH: SQSVEESGGDLVKPGGTLTLTCTASRIDLNNYYYISWVRQAPGKGLEWIGVVATDSSVTWYASWAKGQFTISKTSSTTVTLQMTSLTAADTATYFCARGSGAATNGVWWVMGDGMDLWGPGTLVTVSS
VL: ELVMTQTPASVSEPVGGTVTIKCQASQSISSYLSWYQQKPGQPPKRLIYKASTLASGVPSRFKGSGSGTEFTLTISGVQCADAATYYCQNNYHSGSSNGGGFAFGGGTEVEIK
notes: rabbit
B2: mAb of B cell clone 220 (supernatant) (antibody, V domains shown)
VH: QSVEESGGGLVQPEGSLTLTCTASGFSFSGIVYMCWVRQAPGKGLEWIACAFVGSGGSTYYATWATGRFTISKTSSTTVTLQMTSLTAADTATYFCAKSYNYNGLGLWGPGTLVTVSS
VL: ELDMTQTPASVSAAVGGTVTIKCQASQSITNALAWYQQKPGQPPKLLIYRASTLASGVSSRFKGSGSGTEFTLTISDLECADAATYYCQCSYYGSTYFGSPFGGGTEVEIK
notes: rabbit; also called B1-#220
B3: mAb of B cell clone 203 (supernatant) (antibody, V domains shown)
VH: QSLKESEGDLVKPGASLTLTCTASGFSFSSSYWICWVRQAPGKGLEWIACIYAGSSGSTYYASWAKGRFTISKTSSTTVTLEMTSLTDADTATYFCARGFSMFKLWGPGTLVTISS
VL: ELVLTQTPSSVEAAVGGTVTIKCQASQSIGSYLAWYQQKPGQPPKLLIYKASTLSSGVSSRYKGSGSGTEFTLTISDLECDDAATYYCQYTSYSSGGAFGGGTEVVVK
notes: rabbit
B4: mAb of B cell clone 27 (supernatant) (antibody, V domains shown)
VH: EQSVKESGGGLVQPEGSLTLTCTVSGFSFSGSYWICWVRQAPGKGLEWIACIYGDSIATYYPNWAKGRFTISKTSSTTVTLQMASLTGADTATYFCARDRNGGSGAYGWDLWGPGTLVTISS
VL: ELDLTQTPASVSEPVGGTVTITCQASQSISSYLSWYQQTPGQPPKLLIYKASTLASGVPSRFKGSGSGTEFTLTISDLECADAATYYCQSYYYISATVDNTFGGGTEVEIK
notes: rabbit; also called B1-#27
B5: mAb of B cell clone 5 (supernatant) (antibody, V domains shown)
VH: EQSLEESGGDLVKPEGSLTLTCTASELSFSSAYYMCWVRQAPGKGLEWIGCIYSGDGDTYYANWAKGRFTISKTSSTTVTLQMTSLTDADTATYFCARALDSHYSSFDLWGPGTLVTISS
VL: ELDMTQTPSSVSAAVGDTVTIKCQASQSIYRYLAWYQQKPGQRPSLLIYYGSDLASGVPSRFSGSGSGTEFTLTISDLECADAASYYCQTTYDDYHNGWAFGGGTNVEIN
notes: rabbit; also called B1-#5
B6: mAb of B cell clone 22 (supernatant) (antibody, V domains shown)
VH: EQSLEESGGGLVKPGASLTLTCKASGFDFSSNDYMCWVRQAPGKGLEWIGCIYGGDGHTYYATWAKGRFTISKASSTTVTLQMTSLTAADTASYFCARGYSYGDTGYADAILTLDLWGPGTLVTVSS
VL: ELDLTQTPASVEAAVGGTVTIKCQASQTIGSYLSWYQQKPGQRPKLLIYEASKLASGVPSWFKGSGSGTEFTLTISDLECADAATYYCQSNYYRAGGNYGGAFGGGTEVEIK
notes: rabbit; also called B1-#22
B7: mAb of B cell clone 198 (supernatant) (antibody, V domains shown)
VH: QSLEESGGGLVKPEGSLTLTCTASGFDLSNNYYICWVRQAPGKGLELIACVDSDLTDSADYASWAKGRFTISKTSSTTVTLQMTSLTAADTATYFCAGSGSGYYYYYGMDLWGPGTLVTISS
VL: ELDMTQTPASVSEPVGGTVTIKCQASQSIGSYLAWYQQKPGQPPKLLAFYASTLKSGVPPRFKGSGSGTEFTLTISDLECADAATYYCQSNRLSSSDVNAFGGGTEVEIK
notes: rabbit
B8: mAb of B cell clone 15 (supernatant) (antibody, V domains shown)
VH: EQSVEESGGDLVKPGASLTLTCTASGFSSSSSAYMCWVRQAPGKGLEWIACIFIGSGSDSYYATWAKGRFTISKTSSTTVTLQMTSLTAADTATYFCARNTYDWNGYIYGPCYFGLWGPGTLVTISS
VL: ELDLTQTPSSVEAAVGGTVTIKCQASQSIYNYLAWYQQKPGHSPKLLIYDVSKLASGVSSRFKGSGSGTEFTLTISDLECADAATYYCQSYYGNTVSFTFGGGTEVEIK
notes: rabbit; also called B1-#15
B9: mAb of B cell clone 25 (supernatant) (antibody, V domains shown)
VH: EQSVKESGGGLVQPEGSLTLTCKVSGIDFNYYNYYYMCWVRQAPGKGLEWIGCMSTASANIYLASWAKGRFTISEASSTTVTLQMTSLTAADTATYFCAKSHGGDGGYGVVLWGPGTLVTISS
VL: ELDLTQTPFSVSAAVGGTVTIKCQASETISNRLAWYQQKPGQPPKLLIYSASTLESGVPSRFKGSGSGTEFTLTISDLECADAATYYCQSIRSSSGIVHPNTFGGGTEVEIK
notes: rabbit; also called B1-#25
B10: mAb of B cell clone 7 (supernatant) (antibody, V domains shown)
VH: EQSLEESGGGLVKPGASLTVTCAVSGFSLNSYAITWVRQAPGKGLEYIGYIDTGASITDYASWAKGRFTISKTSSTTVTLEMTSLTDADTATYFCARGFSMFKLWGPGTLVTISS
VL: ELDLTQTPSSVSAAVGGTVTISCQASQSVYGNNRLAWYHQKPGQPPKRLIYLASTLDSGVPSRFKGAGSGTQFTLTISDLECDDAATYYCAGGYAGNFNAFGGGTEVEIK
notes: rabbit; also called B1-#7
B11: mAb of B cell clone 202 (supernatant) (antibody, V domains shown)
VH: SQSLEESGGGLVKPGASLTLTCKGSGFSFNGDYYMCWVRQTPGKGLEWIGCIYAAGDDTYYATWAKGRFTISKTSSTTVTLQMTSLTAADTATYFCARDQADSYAFGLWGPGTLVTISS
VL: ELVLTQTASPVSGAVGGTVTIKCQASQNIYSNLAWYQQKPGQPPKLLIYSASKLASGVPSRFKGSGSGTEYTLTISGVQCEDAATYYCQSYYYTASADTTFGGGTEVEIK
notes: rabbit
B12: mAb of B cell clone 224 (supernatant) (antibody, V domains shown)
VH: EQSVEESGGGLVQPEGSLTLTCTASGIDFSSGAWICWVRQAPGKGLELIACIFTTSGFTYYASWAKGRFTISKTSSTTVTLQMTSLTAADTATYFCARDIYSYGMDLWGPGTLVTISS
VL: ELVLTQTPSSVSEPVGGTVTIKCQASQSISSSYLAWYQQKPGQPPKFLIYSASTLASGVPSRFKGSGSGTEFTLTISDLECADAATYYCQSTYISSSNYGAAFGGGTEVEIK
notes: rabbit
B13: mAb of B cell clone 19 (supernatant) (antibody, V domains shown)
VH: EQSVEESGGGLVKPEGSLTLTCKASGLDFSSSYWSCWVRQTPGRGLEWIGCIDVGSSGGSYYASWARGRFTVSKGSSTTVTLQMTSLTAADTATYFCASTTTNVFGYDLWGPGTLVTVSS
VL: ELDLTQTPASVSEPVGGTVTIKCQASQNIYNNLAWYQQKPGQPPKLLIYYASTLASGVPPRFSGSGSGTEYTLTISDLECDDAATYYCQNNAGIYGGYGHGFGGGTEVVVK
notes: rabbit; also called B1-#19
B14: mAb of B cell clone 226 (supernatant) (antibody, V domains shown)
VH: QEQLVESGGGLVQPEGSLTLTCTASGFSFSSRQYISWVRRAPGKGLEWIGAIVTVNNKVHYANWAKGRFTISEASSTTVTLQMTSLTAADTATYFCARWRTFGLWGPGTLVTVSS
VL: ELVLTQTPSSKSVAVGDTVTINCQASENVYSNNYTSWFQQKPGQPPKQLLYYAAYRASGVPSRFKGSGSGTEFTLSISDVVCDDAATYYCSGHKDYSDDGSTFGGGTEVVVK
notes: rabbit
B15: mAb of B cell clone 10 (supernatant) (antibody, V domains shown)
VH: EQSVEESGGGLVKPEGSLTLTCKASGLDFSSSYWICWVRQAPGKGLEWIACIDTGSSGSTYYASWAKGRFTVSKTSSTTVSLQMTSLTAADTATYFCASTPNSLGYDLWGPGTLVTISS
VL: ELDLTQTPASVSAAVGGTVTIKCQASQNIVSNLAWYQQKPGQRPKLLIYYASTLASGVPSRFKGSGSGTEYTLTISDLECADAATYYCQNNAGIYGNYGHGFGGGTELEIK
notes: rabbit; also called B1-#10
B16: mAb of B cell clone 28 (supernatant) (antibody, V domains shown)
VH: EQSLEESGGGLVKPGASLTLTCKASGFSFSSDYDMCWVRQAPGKGLEWIGCIVTGFSGRIYYATWARGRFTFSRTSSTTLTLQMTSLTAADTATYFCARDSGNYNWDLWGPGTLVTISS
VL: ELDLTQTPTSVSAAVGGTVTIKCQASQSISDYLSWYQQKPGQPPKLLIYRASTLASGVPSRFKGSGSGTEFTLTISDLECADAATYYCQSNYYGSQGCTFGGGTEVEIK
notes: rabbit; also called B1-#28
B17: mAb of B cell clone 196 (supernatant) (antibody, V domains shown)
VH: QEQLVESGGGLVQPEGSLTLTCTDSGFSFTKNYYMCWVRQAPGKGLEWIGCIYAGSTNTFYASWAKGRFTISKASSTTVDLKMTSLTVADTATYFCARDFVSYLNLWGPGTLVTVSS
VL: ELDMTQTPSSTSAAVGGTVTIKCQASQSVYNNNQLSWFQQKPGQPPKRLIYGASTLESGVPSRFSGSGSGTQFTLTISDLECDDAATYYCQGAVSSDYYPFGGGTEVEIK
notes: rabbit
B18: mAb of B cell clone 190 (supernatant) (antibody, V domains shown)
VH: QEQLKESGGDLVKPEGSLTLTCTASGFSFSSDYWVCWVRQAPGKGPEWIGCIYTGDDDTYYASWAKGRFTISKTSSTTVTLEVTSLTAADTATYFCARGLTIGTAELYFWGPGTVVTVSS
VL: ELVLTQTPSPVSAAVGGTVTINCQASQSISNELSWYQQKPGQPPKLLIYLASTLDSGVPSRFKGSGSGTQFTLTISDLECADAATYYCQSHYYGGSSDYGWAFGGGTEVVVK
notes: rabbit; also called B1-#190
B19: mAb of B cell clone 221 (supernatant) (antibody, V domains shown)
VH: QSLEESGGDLVKPGASLTLTCTASGFSFSSSYYMCWVRQAPGKGLEWIACIYGGSTGTTYYASWAKGRFTISKTSSTTVTLQMTSLTGADTATYFCARSYNSASSGYYWDLWGPGTLVTVSS
VL: ELDLTQTPSSVEAAVGGTVTIKCQASQSIGSNLAWYQQKPGQPPKVLIYKASTLASGVPSRFKGSGSGTQFTLTISDLECADAATYYCQNNNYWSNGNHFGGGTEVVVK
notes: rabbit
B20: mAb of B cell clone 18 (supernatant) (antibody, V domains shown)
VH: EQSVKESGGGLVKPGGTLTLTCIVSGFSLSRYAVTWVRQAPGKGPEWIGYIDTSSGNKDYANWVNGRFTISKTSSTTVTLQMTSLTAADTATYFCARGFSMFKLWGPGTLVTISS
VL: ELVMTQTPSSVSAAVGGTVTISCQASQSVYNNNNLAWYQQKPGQPPKRLIYSASTLDSGVPSRFSGSGSGTQFTLTISDLECDDAATYYCAGGYTYNINIFGGGTEVEIK
notes: rabbit; also called B1-#18
B21: mAb of B cell clone 210 (supernatant) (antibody, V domains shown)
VH: QSVEESEGRLVTPGGSLTLTCTVSGIDLSSYAMGWVRQAPGKGLEWIGVIGKSGTTYYANWAKGRFTISKTSTTVDLQIASPTTEDTATYFCARAGASRSIYYDLWGQGTLVTISS
VL: ELVLTQTPSSKSVAVGDTVTINCQASESVYGNNRCSWYQQKPGQPPKLLIYQASTLASGVPSRFSGSGSGTQFTLTISDVVCDDAATYYCAGHKGTTNDGNDFGGGTEVEIK
notes: rabbit; also called B1-#210

T1 sequence (Q8NHL6 24-461 limits assumed): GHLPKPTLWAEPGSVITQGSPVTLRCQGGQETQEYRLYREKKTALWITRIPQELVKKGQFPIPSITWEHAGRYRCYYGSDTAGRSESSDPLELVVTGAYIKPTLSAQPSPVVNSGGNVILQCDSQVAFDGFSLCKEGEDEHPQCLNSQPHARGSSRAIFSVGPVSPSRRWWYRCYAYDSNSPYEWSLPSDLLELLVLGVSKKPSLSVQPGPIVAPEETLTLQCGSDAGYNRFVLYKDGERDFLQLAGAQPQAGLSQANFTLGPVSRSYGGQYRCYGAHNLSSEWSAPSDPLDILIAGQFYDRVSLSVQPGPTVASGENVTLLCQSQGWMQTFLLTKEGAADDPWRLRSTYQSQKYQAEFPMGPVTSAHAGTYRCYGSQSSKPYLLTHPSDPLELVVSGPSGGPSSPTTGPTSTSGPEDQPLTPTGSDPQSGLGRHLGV

This assay concerns the target T1, human LILRB1 recombinant protein (human, UniProt Q8NHL6 24-461).
T1 construct: The ELISA method says only 'LILRB1 recombinant proteins' coated on plates; also called leukocyte immunoglobulin-like receptor subfamily B member 1
As to the kind of experiment: ELISA, B cell supernatant.
Consider B1, for which the OD450 was determined as 2.18 OD450. For B2, the OD450 was 2.24 OD450. Consider B3, for which the OD450 came out at 1.75 OD450. The figure for B4 is 2.56 OD450. Consider B5, for which the OD450 worked out at 2.27 OD450. As to B6, the OD450 was 1.84 OD450. Consider B7, for which the OD450 is 2.28 OD450. Take B8: the OD450 stood at 2.5 OD450. The figure for B9 is 2.3 OD450; for B10 it is 2.4 OD450; for B11 it is 1.95 OD450. The figure for B12 is 2.09 OD450. For B13, the OD450 was found to be 2.32 OD450. For B14, the OD450 worked out at 2.38 OD450.

Consider B15, for which the OD450 was found to be 2.17 OD450. Take B16: the OD450 turned out to be 2.27 OD450. Take B17: the OD450 worked out at 2.27 OD450. The figure for B18 is 1.9 OD450; for B19 it is 1.64 OD450; for B20 it is 2.41 OD450. The result for B21 reads 1.75 OD450.
